From patent publication US20240336661A1, “PEPTIDES DERIVED FROM RUMINOCOCCUS TORQUES” (University of Copenhagen, priority 2021, published 2024)

What was measured:
[1] = test system: murine inguinal white adipocytes; assay: Thermogenesis gene expression in murine inguinal adipocytes (q-PCR); format: cell-based, mouse; settings: murine inguinal white adipocytes from stromal vascular fraction, treated 4 days
Protocol: FIG. 9. Exposure of recombinant RUCILP2 to human visceral white pre-adipocytes or murine inguinal white adipocytes causes up-regulation of the expression of genes involved in thermogenesis/browning. Upper panel: mRNA expression level of adipocyte differentiation marker genes including Ucp1, Pparγ1, Dio2, and Cox2 and brown adipocyte-selective genes including Cpt1b and Ebf2 on human white preadipocytes (HWP). Human white preadipocytes were cultured until 80% confluent and switched into differentiation media (with 0.3 ml/ml fetal calf serum, 8 ug/ml d-biotin, 0.5 ug/ml insulin, 400 ng/ml dexamethasone). The differentiation process to mature adipocytes was completed after 12-14 days. The treatment of RUCILP2 started from the third day of differentiation. Cells were harvested after 14 days of differentiation and the gene expressions were quantified by q-PCR. […] Statistical significance was determined by unpaired two-tailed Student's t test. *, p<0.05 vs 0 nM RUCILP2.
FIG. 28. […] Cells were harvested after 14 days of differentiation and the indicated genes were quantified by q-PCR. […] Cells were harvested after 6 days of differentiation and thermogenesis gene were quantified by q-PCR. […] Cells were harvested after 4 days of differentiation and expression of myogenesis genes were quantified by q-PCR. […] Statistical significance was determined by unpaired two-tailed Student's t test, *, p<0.05 […]

adipocytes = assay: Oil red O staining of lipids in adipocytes; format: cell-based, mouse
Protocol: FIG. 10. […] Staining was performed on 10% formalin-fixed adipocytes according to the manufacturer's protocol.
Oil red O staining of lipids in adipocytes was performed according to the protocol below: • (1) Fixation—Remove the medium and gently wash the cells twice with PBS. Add formalin (10%) to the cells and incubate for 30 minutes • (2) Discard the formalin and wash the cells twice using sterile water. Add 60% isopropanol to the cells and incubate for 5 minutes • (3) Discard 60% isopropanol and cover the cells evenly with Oil Red O Working Solution. Rotate the plate or dish, and incubate for 15 minutes • (4) Discard the Oil Red O solution and wash the cells four times with water until no excess stain is seen • (5) Add hematoxylin to the cells and incubate for 1 minute. Discard hematoxylin and wash the cells four times with water • (6) Cover the cells with sterile water and view under microscope. Lipid droplets appear red, and nuclei appear blue

B1: RUCILP2: 87 amino acid irisin-like polypeptide cleaved from the Ruminococcus torques FNDC5-like protein RUMTOR_00181; recombinant, 6-His-tagged from E. coli (protein)
chain: APVDVKVSEITETSAKASWKNAADGKEAAGYNVYVDGVKLNKELLTEASCGLTNLKAETTYFVEVTAVDAAGNESVKSEKVTFKTLK
modifications: 6-His tag; Ruminococcus torques
notes: 87 amino acid irisin-like polypeptide cleaved from the Ruminococcus torques FNDC5-like protein RUMTOR_00181; recombinant, 6-His-tagged from E. coli
In the case of B1, the “expression of genes involved in thermogenesis/browning” value [1] is reported as “up-regulation” and the “lipid content in adipocytes (oil red O staining)” value (adipocytes) is reported as “reduces lipid content”.
